Measurements published in patent US20120115830A1 (QUEEN S UNIVERSITY OF BELFAST, published 2012).

T1: XAP3 cloned in-frame into pACT plasmid (UniProt Q9BYM8 1-510)
T1 construct: Mammalian two-hybrid construct expressed in L132 cells; also called XAP3 (pACT); not shown: fusion partner encoded by the pACT vector
T1 sequence (looked up): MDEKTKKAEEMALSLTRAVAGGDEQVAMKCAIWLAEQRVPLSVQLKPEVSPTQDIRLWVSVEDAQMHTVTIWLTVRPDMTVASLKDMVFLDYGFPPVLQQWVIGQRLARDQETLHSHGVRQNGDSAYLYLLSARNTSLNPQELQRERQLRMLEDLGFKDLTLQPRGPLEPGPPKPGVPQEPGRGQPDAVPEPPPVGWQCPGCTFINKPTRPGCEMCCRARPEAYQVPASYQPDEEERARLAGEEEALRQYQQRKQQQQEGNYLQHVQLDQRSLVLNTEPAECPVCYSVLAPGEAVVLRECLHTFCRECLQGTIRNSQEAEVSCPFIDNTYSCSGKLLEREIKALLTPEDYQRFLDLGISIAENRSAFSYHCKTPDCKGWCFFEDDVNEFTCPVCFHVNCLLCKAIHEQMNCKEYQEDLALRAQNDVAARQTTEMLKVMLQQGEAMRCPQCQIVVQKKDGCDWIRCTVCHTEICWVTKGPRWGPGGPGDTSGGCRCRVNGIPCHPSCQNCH

T2: USP19 cloned in-frame into pACT plasmid (UniProt O94966 1-1318)
T2 sequence (looked up): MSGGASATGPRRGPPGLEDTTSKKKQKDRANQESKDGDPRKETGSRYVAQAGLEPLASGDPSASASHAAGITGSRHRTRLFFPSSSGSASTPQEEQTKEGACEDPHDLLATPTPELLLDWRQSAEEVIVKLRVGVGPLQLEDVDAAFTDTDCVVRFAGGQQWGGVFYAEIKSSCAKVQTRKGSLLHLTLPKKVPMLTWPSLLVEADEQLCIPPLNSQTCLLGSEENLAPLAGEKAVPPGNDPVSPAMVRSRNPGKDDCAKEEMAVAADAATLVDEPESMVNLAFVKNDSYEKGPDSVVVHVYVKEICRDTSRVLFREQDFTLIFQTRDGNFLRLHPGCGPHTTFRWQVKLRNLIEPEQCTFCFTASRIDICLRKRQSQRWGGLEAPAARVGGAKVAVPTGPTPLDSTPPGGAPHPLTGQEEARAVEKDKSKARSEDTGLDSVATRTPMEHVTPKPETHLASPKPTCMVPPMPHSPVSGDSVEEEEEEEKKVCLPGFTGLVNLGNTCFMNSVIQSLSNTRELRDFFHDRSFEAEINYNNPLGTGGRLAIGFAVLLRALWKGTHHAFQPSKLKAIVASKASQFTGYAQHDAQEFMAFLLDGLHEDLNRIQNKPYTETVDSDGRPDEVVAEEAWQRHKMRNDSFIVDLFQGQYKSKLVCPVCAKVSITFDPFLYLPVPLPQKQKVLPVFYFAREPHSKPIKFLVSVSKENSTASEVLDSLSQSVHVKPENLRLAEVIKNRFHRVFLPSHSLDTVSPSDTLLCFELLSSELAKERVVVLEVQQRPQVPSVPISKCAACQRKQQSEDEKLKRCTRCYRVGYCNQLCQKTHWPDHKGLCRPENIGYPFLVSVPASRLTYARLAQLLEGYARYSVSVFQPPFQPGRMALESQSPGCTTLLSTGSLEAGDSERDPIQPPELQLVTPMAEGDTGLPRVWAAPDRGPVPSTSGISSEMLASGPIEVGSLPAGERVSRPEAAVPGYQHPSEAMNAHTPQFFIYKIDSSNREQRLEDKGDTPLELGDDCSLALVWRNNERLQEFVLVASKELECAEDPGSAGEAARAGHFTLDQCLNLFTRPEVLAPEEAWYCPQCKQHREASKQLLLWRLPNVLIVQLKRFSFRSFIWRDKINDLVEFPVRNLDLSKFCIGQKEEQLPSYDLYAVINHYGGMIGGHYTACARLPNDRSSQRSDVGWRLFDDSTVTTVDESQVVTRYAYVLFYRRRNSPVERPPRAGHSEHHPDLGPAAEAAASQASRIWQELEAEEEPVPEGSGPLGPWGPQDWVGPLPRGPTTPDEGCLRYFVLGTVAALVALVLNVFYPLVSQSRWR

B1: FKBPLΔ200 (other, not shown: large carriers)
chain: METPPVNTIGEKDTSQPQQEWEKNLRENLDSVIQIRQQPRDPPTETLELEVSPDPASQILEHTQGAEKLVAELEGDSHKSHGSTSQMPEALQASDLWYCPDGSFVKKIVIRGHGLDKPKLGSCCRVLALGFPFGSGPPEGWTELTMGVGPWREETWGELIEKCLESMCQGEEAELQLPGHSGPPVRLTLASFTQGRDSWE
B2: Full length FKBPL cloned in-frame into pBIND plasmid (other, not shown: large carriers)
chain: METPPVNTIGEKDTSQPQQEWEKNLRENLDSVIQIRQQPRDPPTETLELEVSPDPASQILEHTQGAEKLVAELEGDSHKSHGSTSQMPEALQASDLWYCPDGSFVKKIVIRGHGLDKPKLGSCCRVLALGFPFGSGPPEGWTELTMGVGPWREETWGELIEKCLESMCQGEEAELQLPGHSGPPVRLTLASFTQGRDSWELETSEKEALAREERARGTELFRAGNPEGAARCYGRALRLLLTLPPPGPPERTVLHANLAACQLLLGQPQLAAQSCDRVLEREPGHLKALYRRGVAQAALGNLEKATADLKKVLAIDPKNRAAQEELGKVVIQGKNQDAGLAQGLRKMFG

How the values were obtained:
[1] = target: T1, XAP3 cloned in-frame into pACT plasmid; assay: mammalian two-hybrid (firefly luciferase) in L132 cells
Procedure: In order to confirm the interactions detected using the yeast two-hybrid system and determine that the interaction can take place in a biologically relevant model, the Checkmate Mammalian Two-Hybrid System (Promega, Cat no. E2440) was used. Full length FKBPL and a variety of FKBPL mutants were cloned ‘in-frame’ into pBIND plasmid according to manufacturer's instructions. XAP3 and USP19 were cloned ‘in-frame’ into pACT plasmid according to manufacturer's instructions. 2×10⁴ L132 cells were plated in triplicate into a 96 well plate for each transfection condition and incubated overnight at 37° C. with MEM containing 10% FCS. FKBPL, XAP3 and USP19 plasmids were transfected into cells using Lipofectamine Plus (Invitrogen, Cat no.) and incubated at 37° C. for 24 h. The plate was allowed to equilibrate to room temperature then 75 μl room temperature Dual-Glo Luciferase Reagent (Promega, Cat no. E2920) was added to each well, mixed thoroughly and wrapped in tinfoil. After 15 minutes incubation at room temperature, the Firefly luminescence was measured using a GENios platereader (Tecan). […] After 15 minutes incubation at room temperature, the Renilla luminescence was measured.
Following correction, increased firefly luminescence over self-activations controls indicated a positive interaction between the proteins.

[2] = target: T1, XAP3 cloned in-frame into pACT plasmid; assay: cell-based or functional assay
[3] = target: T2, USP19 cloned in-frame into pACT plasmid; assay: cell-based or functional assay

| Binder | binding result [1] | induction of firefly luminescence [2] [fold] | induction of firefly luminescence [3] [fold] |
| --- | --- | --- | --- |
| B1 | no binding |  |  |
| B2 |  | 20 | 10 |
